Twelve molecules from patent US20200199241A1 (Chugai, published 2020) can be followed below.

The target of the assay is T1, soluble human FcRn complexed with β2-microglobulin (human, UniProt P61769 21-119, limits assumed).
T1 construct: also called hFcRn
Kind of assay: Biacore SPR, pH 7.0.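 Further: test antibodies captured on a Protein L chip with human FcRn flowed over as analyte, KD obtained as the ratio of dissociation to association rate constants.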 On the technique in general: In SPR one partner is held on a chip, and binding of the other changes the refractive index at the surface.

T1 sequence (chain, as listed by the source limits assumed, chain 1 of 2): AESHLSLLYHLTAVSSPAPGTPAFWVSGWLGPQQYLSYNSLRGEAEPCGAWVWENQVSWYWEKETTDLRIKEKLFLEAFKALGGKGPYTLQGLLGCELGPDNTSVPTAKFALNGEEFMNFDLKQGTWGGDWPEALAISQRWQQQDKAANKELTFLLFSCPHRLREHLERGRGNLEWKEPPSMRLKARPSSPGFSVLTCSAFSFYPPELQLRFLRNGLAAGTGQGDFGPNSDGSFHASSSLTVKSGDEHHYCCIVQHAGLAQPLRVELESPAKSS
T1 sequence (P61769 21-119 limits assumed, chain 2 of 2): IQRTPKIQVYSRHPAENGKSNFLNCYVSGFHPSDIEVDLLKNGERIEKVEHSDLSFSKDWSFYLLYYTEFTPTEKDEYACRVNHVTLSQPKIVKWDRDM

B1: IgG1-F999 (antibody)
heavy: QVQLQESGPGLVKPSETLSLTCAVSGHSISHDHAWSWVRQPPGEGLEWIGFISYSGITNYNPSLQGRVTISRDNSKNTLYLQMNSLRAEDTAVYYCARSLARTTAMDYWGEGTLVTVSSASTKGPSVFPLAPSSKSTSGGTAALGCLVKDYFPEPVTVSWNSGALTSGVHTFPAVLQSSGLYSLSSVVTVPSSSLGTQTYICNVNHKPSNTKVDKKVEPKSCDKTHTCPPCPAPELLGGPSVFLFPPKPKDVLYISRTPHVTCVVVDVSHEDPEVKFNWYVDGVEVHNAKTKPREEQYNSTYRVVSVLTVLHQDWLNGKEYKCKVSNKALPAPIEKTISKAKGQPREPQVYTLPPSRDELTKNQVSLTCLVKGFYPSDIAVEWESNGQPENNYKTTPPVLDSDGSFFLYSKLTVDKSRWQQGNVFSCSVMHEALHYHVTQKSLSLSP
light: not shown
notes: EU numbering; copies: 2 + 2
Usually Kd stands for the equilibrium constant for the complex coming apart. For the molecule B1, the dissociation constant Kd came out at 210 nM.

B2: IgG1-F1012 (antibody)
heavy: QVQLQESGPGLVKPSETLSLTCAVSGHSISHDHAWSWVRQPPGEGLEWIGFISYSGITNYNPSLQGRVTISRDNSKNTLYLQMNSLRAEDTAVYYCARSLARTTAMDYWGEGTLVTVSSASTKGPSVFPLAPSSKSTSGGTAALGCLVKDYFPEPVTVSWNSGALTSGVHTFPAVLQSSGLYSLSSVVTVPSSSLGTQTYICNVNHKPSNTKVDKKVEPKSCDKTHTCPPCPAPELRGGPKVFLFPPKPKDVLYISRTPEVTCVVVDVSHEDPEVKFNWYVDGVEVHNAKTKPREEQYNSTYRVVSVLTPLHQDWLNGKEYKCKVSNKALPAPIEKTISKAKGQPREPQVYTLPPSRDELTKNQVSLTCLVKGFYPSDIAVEWESNGQPENNYKTTPPVLDSDGSFFLYSKLTVDKSRWQQGNVFSCSVMHEALHYHYTQKSLSLSP
light: not shown
notes: EU numbering; copies: 2 + 2
On to B2, for which the Kd amounted to 47 nM. Compared with the last molecule, the Kd is about 4.5-fold lower.

B3: IgG1-F1010 (antibody)
heavy: QVQLQESGPGLVKPSETLSLTCAVSGHSISHDHAWSWVRQPPGEGLEWIGFISYSGITNYNPSLQGRVTISRDNSKNTLYLQMNSLRAEDTAVYYCARSLARTTAMDYWGEGTLVTVSSASTKGPSVFPLAPSSKSTSGGTAALGCLVKDYFPEPVTVSWNSGALTSGVHTFPAVLQSSGLYSLSSVVTVPSSSLGTQTYICNVNHKPSNTKVDKKVEPKSCDKTHTCPPCPAPELRGGPKVFLFPPKPKDTLYISRTPEVTCVVVDVSHEDPEVKFNWYVDGVEVHNAKTKPREEQYNSTYRVVSVLAVLHHDWLNGKEYKCKVSNKALPAPIEKTISKAKGQPREPQVYTLPPSRDELTKNQVSLTCLVKGFYPSDIAVEWESNGQPENNYKTTPPVLDSDGSFFLYSKLTVDKSRWQQGNVFSCSVMHEALHYHYTQKSLSLSP
light: not shown
notes: EU numbering; copies: 2 + 2
As to B3, the equilibrium dissociation constant (Kd) was 190 nM.

B4: IgG1-F1020 (antibody)
heavy: QVQLQESGPGLVKPSETLSLTCAVSGHSISHDHAWSWVRQPPGEGLEWIGFISYSGITNYNPSLQGRVTISRDNSKNTLYLQMNSLRAEDTAVYYCARSLARTTAMDYWGEGTLVTVSSASTKGPSVFPLAPSSKSTSGGTAALGCLVKDYFPEPVTVSWNSGALTSGVHTFPAVLQSSGLYSLSSVVTVPSSSLGTQTYICNVNHKPSNTKVDKKVEPKSCDKTHTCPPCPAPELLGGDSVFLFPPKPKDVLYISRTPEVTCVVVDVSHEDPEVKFNWYVDGVEVHNAKTKPREEQYNSTYRVVSVLQVLHADWLNGKEYKCKVSGKALPAPIEKTISKAKGQPREPQVYTLPPSRDELTKNQVSLTCLVKGFYPSDIAVEWESNGQPENNYKTTPPVLDSDGSFFLYSKLTVDKSRWQQGNVFSCSVMHEALHYHYTQKSLSLSP
light: not shown
notes: EU numbering; copies: 2 + 2
Take B4: binding was characterised by a dissociation constant (Kd) of 85 nM.

B5: IgG1-F1009 (antibody)
heavy: QVQLQESGPGLVKPSETLSLTCAVSGHSISHDHAWSWVRQPPGEGLEWIGFISYSGITNYNPSLQGRVTISRDNSKNTLYLQMNSLRAEDTAVYYCARSLARTTAMDYWGEGTLVTVSSASTKGPSVFPLAPSSKSTSGGTAALGCLVKDYFPEPVTVSWNSGALTSGVHTFPAVLQSSGLYSLSSVVTVPSSSLGTQTYICNVNHKPSNTKVDKKVEPKSCDKTHTCPPCPAPELRGGPKVFLFPPKPKDVLYISRTPEVTCVVVDVSHEDPEVKFNWYVDGVEVHNAKTKPREEQYNSTYRVVSVLQPLHADWLNGKEYKCKVSNKALPAPIEKTISKAKGQPREPQVYTLPPSRDELTKNQVSLTCLVKGFYPSDIAVEWESNGQPENNYKTTPPVLDSDGSFFLYSKLTVDKSRWQQGNVFSCSVMHEALHYHVTQKSLSLSP
light: not shown
notes: copies: 2 + 2
Molecule B5 gave a Kd of 12 nM.

B6: IgG1-F1011 (antibody)
heavy: QVQLQESGPGLVKPSETLSLTCAVSGHSISHDHAWSWVRQPPGEGLEWIGFISYSGITNYNPSLQGRVTISRDNSKNTLYLQMNSLRAEDTAVYYCARSLARTTAMDYWGEGTLVTVSSASTKGPSVFPLAPSSKSTSGGTAALGCLVKDYFPEPVTVSWNSGALTSGVHTFPAVLQSSGLYSLSSVVTVPSSSLGTQTYICNVNHKPSNTKVDKKVEPKSCDKTHTCPPCPAPELLGGPSVFLFPPKPKDVLYISRTPEVTCVVVDVSHEDPEVKFNWYVDGVEVHNAKTKPREEQYNSTYRVVSVLTPLHQDWLNGKEYKCKVSNKALPAPIEKTISKAKGQPREPQVYTLPPSRDELTKNQVSLTCLVKGFYPSDIAVEWESNGQPENNYKTTPPVLDSDGSFFLYSKLTVDKSRWQQGNVFSCSVMHEALHYHYTQKSLSLSP
light: not shown
notes: EU numbering; copies: 2 + 2
For the molecule B6, the Kd turned out to be 45 nM.

B7: IgG1-F1021 (antibody)
heavy: QVQLQESGPGLVKPSETLSLTCAVSGHSISHDHAWSWVRQPPGEGLEWIGFISYSGITNYNPSLQGRVTISRDNSKNTLYLQMNSLRAEDTAVYYCARSLARTTAMDYWGEGTLVTVSSASTKGPSVFPLAPSSKSTSGGTAALGCLVKDYFPEPVTVSWNSGALTSGVHTFPAVLQSSGLYSLSSVVTVPSSSLGTQTYICNVNHKPSNTKVDKKVEPKSCDKTHTCPPCPAPELLGGDSVFLFPPKPKDVLYISRTPEVTCVVVDVSHEDPEVKFNWYVDGVEVHNAKTKPREEQYNSTYRVVSVLTVLHQDWLNGKEYKCKVSAKALPAPIEKTISKAKGQPREPQVYTLPPSRDELTKNQVSLTCLVKGFYPSDIAVEWESNGQPENNYKTTPPVLDSDGSFFLYSKLTVDKSRWQQGNVFSCSVMHEALHYHYTQKSLSLSP
light: not shown
notes: EU numbering; copies: 2 + 2
B7 showed a Kd of 330 nM.

B8: IgG1-F1015 (antibody)
heavy: QVQLQESGPGLVKPSETLSLTCAVSGHSISHDHAWSWVRQPPGEGLEWIGFISYSGITNYNPSLQGRVTISRDNSKNTLYLQMNSLRAEDTAVYYCARSLARTTAMDYWGEGTLVTVSSASTKGPSVFPLAPSSKSTSGGTAALGCLVKDYFPEPVTVSWNSGALTSGVHTFPAVLQSSGLYSLSSVVTVPSSSLGTQTYICNVNHKPSNTKVDKKVEPKSCDKTHTCPPCPAPELRGGPKVFLFPPKPKDTLYISRTPEVTCVVVDVSHEDPEVKFNWYVDGVEVHNAKTKPREEQYNSTYRVVSVLQPLHADWLNGKEYKCKVSNKALPAPIEKTISKAKGQPREPQVYTLPPSRDELTKNQVSLTCLVKGFYPSDIAVEWESNGQPENNYKTTPPVLDSDGSFFLYSKLTVDKSRWQQGNVFSCSVMHEALHYHYTQKSLSLSP
light: not shown
notes: EU numbering; copies: 2 + 2
Molecule B8 gave a dissociation constant (Kd) of 22 nM.

B9: IgG1-F1016 (antibody)
heavy: QVQLQESGPGLVKPSETLSLTCAVSGHSISHDHAWSWVRQPPGEGLEWIGFISYSGITNYNPSLQGRVTISRDNSKNTLYLQMNSLRAEDTAVYYCARSLARTTAMDYWGEGTLVTVSSASTKGPSVFPLAPSSKSTSGGTAALGCLVKDYFPEPVTVSWNSGALTSGVHTFPAVLQSSGLYSLSSVVTVPSSSLGTQTYICNVNHKPSNTKVDKKVEPKSCDKTHTCPPCPAPELLGGPSVFLFPPKPKDVLYISRTPEVTCVVVDVSHEDPEVKFNWYVDGVEVHEAKTKPREEQYNSTYRVVSVLQPLHADWLNGKEYKCKVSNKALPAPIEKTISKAKGQPREPQVYTLPPSRDELTKNQVSLTCLVKGFYPSDIAVEWESNGQPENNYKTTPPVLDSDGSFFLYSKLTVDKSRWQQGNVFSCSVMHEALHYHVTQKSLSLSP
light: not shown
notes: EU numbering; copies: 2 + 2
The molecule B9 returned a Kd of 3.8 nM.

B10: IgG1-F1008 (antibody)
heavy: QVQLQESGPGLVKPSETLSLTCAVSGHSISHDHAWSWVRQPPGEGLEWIGFISYSGITNYNPSLQGRVTISRDNSKNTLYLQMNSLRAEDTAVYYCARSLARTTAMDYWGEGTLVTVSSASTKGPSVFPLAPSSKSTSGGTAALGCLVKDYFPEPVTVSWNSGALTSGVHTFPAVLQSSGLYSLSSVVTVPSSSLGTQTYICNVNHKPSNTKVDKKVEPKSCDKTHTCPPCPAPELRGGPKVFLFPPKPKDVLYISRTPEVTCVVVDVSHEDPEVKFNWYVDGVEVHNAKTKPREEQYNSTYRVVSVLTVLHQDWLNGKEYKCKVSNKALPAPIEKTISKAKGQPREPQVYTLPPSRDELTKNQVSLTCLVKGFYPSDIAVEWESNGQPENNYKTTPPVLDSDGSFFLYSKLTVDKSRWQQGNVFSCSVMHEALHYHVTQKSLSLSP
light: not shown
notes: EU numbering; copies: 2 + 2
Consider B10, for which the Kd amounted to 170 nM.

B11: IgG1-F1018 (antibody)
heavy: QVQLQESGPGLVKPSETLSLTCAVSGHSISHDHAWSWVRQPPGEGLEWIGFISYSGITNYNPSLQGRVTISRDNSKNTLYLQMNSLRAEDTAVYYCARSLARTTAMDYWGEGTLVTVSSASTKGPSVFPLAPSSKSTSGGTAALGCLVKDYFPEPVTVSWNSGALTSGVHTFPAVLQSSGLYSLSSVVTVPSSSLGTQTYICNVNHKPSNTKVDKKVEPKSCDKTHTCPPCPAPELRGGPKVFLFPPKPKDTLYISRTPEVTCVVVDVSHEDPEVKFNWYVDGVEVHEAKTKPREEQYNSTYRVVSVLQPLHADWLNGKEYKCKVSNKALPAPIEKTISKAKGQPREPQVYTLPPSRDELTKNQVSLTCLVKGFYPSDIAVEWESNGQPENNYKTTPPVLDSDGSFFLYSKLTVDKSRWQQGNVFSCSVMHEALHYHVTQKSLSLSP
light: not shown
notes: EU numbering; copies: 2 + 2
B11 returned an equilibrium dissociation constant (Kd) of 3.2 nM.

B12: IgG1-F1013 (antibody)
heavy: QVQLQESGPGLVKPSETLSLTCAVSGHSISHDHAWSWVRQPPGEGLEWIGFISYSGITNYNPSLQGRVTISRDNSKNTLYLQMNSLRAEDTAVYYCARSLARTTAMDYWGEGTLVTVSSASTKGPSVFPLAPSSKSTSGGTAALGCLVKDYFPEPVTVSWNSGALTSGVHTFPAVLQSSGLYSLSSVVTVPSSSLGTQTYICNVNHKPSNTKVDKKVEPKSCDKTHTCPPCPAPELLGGPSVFLFPPKPKDVLYISRTPEVTCVVVDVSHEDPEVKFNWYVDGVEVHNAKTKPREEQYNSTYRVVSVLQPLHADWLNGKEYKCKVSNKALPAPIEKTISKAKGQPREPQVYTLPPSRDELTKNQVSLTCLVKGFYPSDIAVEWESNGQPENNYKTTPPVLDSDGSFFLYSKLTVDKSRWQQGNVFSCSVMHEALHYHYTQKSLSLSP
light: not shown
notes: EU numbering; copies: 2 + 2
As for B12, the equilibrium dissociation constant (Kd) stood at 30 nM. Compared with the last molecule, the Kd is about 9.4-fold higher.
